Test results from IntAct's records for PubMed 23569223.

B1: Torsin-1A (Homo sapiens), O14656 (parent)
chain: MKLGRAVLGLLLLAPSVVQAVEPISLGLALAGVLTGYIYPRLYCLFAECCGQKRSLSREALQKDLDDNLFGQHLAKKIILNAVFGFINNPKPKKPLTLSLHGWTGTGKNFVSKIIAENIYEGGLNSDYVHLFVATLHFPHASNITLYKDQLQLWIRGNVSACARSIFIFDEMDKMHAGLIDAIKPFLDYYDLVDGVSYQKAMFIFLSNAGAERITDVALDFWRSGKQREDIKLKDIEHALSVSVFNNKNSGFWHSSLIDRNLIDYFVPFLPLEYKHLKMCIRVEMQSRGYEIDEDIVSRVAEEMTFFPKEERVFSDKGCKTVFTKLDYYYDD

Variants of: B1
Details: with toip2_human TOR1AIP2, Q8NFQ8

Variant | effect of a mutation on the interaction
MKLGRAVLGLLLLAPSVVQAVEPISLGLALAGVLTGYIYPRLYCLFAECCGQKRSLSREALQKDLDDNLFGQHLAKKIILNAVFGFINNPKPKKPLTLSLHGWTGTGKNFVSKIIAENIYEGGLNSDYVHLFVATLHFPHASNITLYKDQLQLWIRGNVSACARSIFIFDQMDKMHAGLIDAIKPFLDYYDLVDGVSYQKAMFIFLSNAGAERITDVALDFWRSGKQREDIKLKDIEHALSVSVFNNKNSGFWHSSLIDRNLIDYFVPFLPLEYKHLKMCIRVEMQSRGYEIDEDIVSRVAEEMTFFPKEERVFSDKGCKTVFTKLDYYYDD [E171Q] | with no effect

Variants of: B1
Details: with toip1_human TOR1AIP1, Q5JTV8
Chain of toip1_human TOR1AIP1, Q5JTV8 (Q5JTV8 whole entry): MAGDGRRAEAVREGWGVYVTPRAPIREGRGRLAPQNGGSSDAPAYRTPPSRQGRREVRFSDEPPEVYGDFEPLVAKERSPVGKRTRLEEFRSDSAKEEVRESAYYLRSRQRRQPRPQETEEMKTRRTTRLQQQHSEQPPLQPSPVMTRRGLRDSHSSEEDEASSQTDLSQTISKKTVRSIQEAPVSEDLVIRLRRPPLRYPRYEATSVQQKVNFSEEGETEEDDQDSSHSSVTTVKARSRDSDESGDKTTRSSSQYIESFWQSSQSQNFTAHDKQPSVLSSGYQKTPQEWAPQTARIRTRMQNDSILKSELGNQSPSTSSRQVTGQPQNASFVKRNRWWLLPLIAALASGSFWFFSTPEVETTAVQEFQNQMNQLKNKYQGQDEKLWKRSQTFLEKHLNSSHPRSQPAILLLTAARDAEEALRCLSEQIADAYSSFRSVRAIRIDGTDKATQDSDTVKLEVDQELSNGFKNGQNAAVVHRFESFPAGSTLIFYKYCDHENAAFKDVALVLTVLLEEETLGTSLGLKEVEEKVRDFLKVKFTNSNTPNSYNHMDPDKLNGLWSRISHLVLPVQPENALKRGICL

Variant | effect of a mutation on the interaction
MKLGRAVLGLLLLAPSVVQAVEPISLGLALAGVLTGYIYPRLYCLFAECCGQKRSLSREALQKDLDDNLFGQHLAKKIILNAVFGFINNPKPKKPLTLSLHGWTGTGKNFVSKIIAENIYEGGLNSDYVHLFVATLHFPHASNITLYKDQLQLWIRGNVSACARSIFIFDQMDKMHAGLIDAIKPFLDYYDLVDGVSYQKAMFIFLSNAGAERITDVALDFWRSGKQREDIKLKDIEHALSVSVFNNKNSGFWHSSLIDRNLIDYFVPFLPLEYKHLKMCIRVEMQSRGYEIDEDIVSRVAEEMTFFPKEERVFSDKGCKTVFTKLDYYYDD [E171Q] | with no effect
